Data on 4 compounds can be found in patent publication US20020012945A1, “METHOD AND REAGENT FOR THE DETECTION OF APOPTOTIC CELLS AND OF A PROTEASE ACTIVATED DURING APOPTOSIS” (priority 1998, published 2002).

* marks the point of attachment. Dnp = O=[N+]([O-])c1ccc(*)c([N+](=O)[O-])c1; Mca = COc1ccc2c(CC(=O)*)cc(=O)oc2c1

The subject of assay [1] is caspase 3. Nature of the assay: Caspase 3 activation in camptothecin-treated U937 cells, antibody capture and Ac-DEVD-AFC cleavage. Type of assay: cell-based, human. Conditions: U937 5×10^5 cells/ml, 4 μg/ml camptothecin, after 2 h. The protocol: In order to induce apoptosis in a cellular system, human cells (U937; human histiolytic lymphoma […]) were treated with camptothecin (Topoisomerase I inhibitor, chemotherapeutic agent). […] In order to detect the protease activated by apoptosis (caspase 3), ca. 10^6 cells were withdrawn from the treated cell culture and lysed in lysis buffer (50 mM NaPO4, 10 mM NaCl, 1 mM […], 0.25% (w/v) Nonidet P40, 0.3 mM EDTA; pH 7.8) on ice. The lysate is then contacted with an antibody directed against caspase 3 which is coupled to a solid phase and binds caspase 3 from the lysate for the specific caspase 3 analysis. After removing the supernatant (contains all unspecific components and enzymes), a substrate (50 μM Ac-DEVD-AFC) is added and its caspase 3 mediated substrate conversion is measured by the formation of the fluorescent coumarin cleavage product. After subtraction of the blank value (self fluorescence of the substrate without lysate addition), the kinetic course of the caspase 3 activity can be shown graphically (FIG. 1).

For assay [2], the target named is T1, caspase 3 (Homo sapiens, UniProt P42574).
T1 construct: endogenous in cells; host or cells: cell lysates with and without camptothecin induction (cell model U937/CAM)
T1 sequence (P42574 29-175 limits assumed): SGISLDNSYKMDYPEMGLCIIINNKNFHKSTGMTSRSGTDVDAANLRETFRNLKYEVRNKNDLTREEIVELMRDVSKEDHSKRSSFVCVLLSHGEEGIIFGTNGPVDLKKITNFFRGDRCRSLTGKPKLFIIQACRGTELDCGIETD
T1 sequence (P42574 176-277 limits assumed): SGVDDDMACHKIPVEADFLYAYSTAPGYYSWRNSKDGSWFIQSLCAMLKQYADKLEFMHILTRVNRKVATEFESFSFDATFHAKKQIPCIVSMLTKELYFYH
In words: Selection of the optimal fluorescent substrate. Type of assay: biochemical. As for the experimental part:
Three fluorescent substrates were tested. They are acetyl-Asp-Glu-Val-Asp-7-amido-4-trifluoromethyl-coumarin (AFC), acetyl-Asp-Glu-Val-Asp-7-amido-4-methyl-coumarin (AMC) and (7-methoxycoumarin-4-yl)acetyl-Asp-Glu-Val-Asp-Ala-Pro-Lys(2,4-dinitrophenyl)OH (Mca). The three substrates were compared with one another using the assessment criteria i) background ii) signal level and iii) signal ratio from ± induction.

`CC[C@@]1(O)C(=O)OCc2c1cc1n(c2=O)Cc2cc3ccccc3nc2-1` [camptothecin]: the “protease activity (caspase 3)” value with caspase 3 [1] is “increase of protease activity”.

With “(7-methoxycoumarin-4-yl)acetyl-Asp-Glu-Val-Asp-Ala-Pro-Lys(2,4-dinitrophenyl)OH (Mca-DEVDAPK(Dnp)-OH; SMILES COc1ccc2c(CC(=O)N[C@@H](CC(=O)O)C(=O)N[C@@H](CCC(=O)O)C(=O)N[C@H](C(=O)N[C@@H](CC(=O)O)C(=O)N[C@@H](C)C(=O)N3CCC[C@H]3C(=O)N[C@@H](CCCCNc3ccc([N+](=O)[O-])cc3[N+](=O)[O-])C(=O)O)C(C)C)cc(=O)oc2c1)”, in the assay with caspase 3 [2], the signal level entry is “low signal levels” and the “signal ratio from ± induction” value is on record as “somewhat better ratio”.

As for “acetyl-Asp-Glu-Val-Asp-7-amido-4-methyl-coumarin [AMC]”, in the assay with caspase 3 [2], the “background (self-fluorescence of the substrate without lysate addition)” value is listed as “relatively high” and the signal level result is recorded as “highest signals”.

As to “acetyl-Asp-Glu-Val-Asp-7-amido-4-trifluoromethyl-coumarin [AFC]”, in the assay with caspase 3 [2], the signal level result is listed as “very good signal yield” and the “signal ratio from ± induction” value is given as “optimal ratio”.
